Data reported in patent US20080166762A1.

Target: IL-1 receptors on MCF-7 cells
Assay: cell-based or functional assay

proliferation of MCF-7 cells (BrdU) in the presence of 50 ng IL-1beta	inhibition of proliferation of MCF-7 cells (BrdU)	Substance
40 ng		Interleukin 1 receptor antagonist (IL-1Ra) secreted by Pichia pastoris x-33/pGAPZαA/IL-1Ra clone 7, partially purified (from UniProt P18510 26-177) (ligand)
	50 ng	Recombinant human IL-1beta (from UniProt P01584 117-269) (ligand)
20 ng		recombinant IL-1Ra standard from E. coli (Prospectany) (from UniProt P18510 26-177) (ligand)
